From article PMC8047137, “Smyd1 Orchestrates Early Heart Development Through Positive and Negative Gene Regulation” (Frontiers in Cell and Developmental Biology, 2021)

Target: V5-tagged ASH2L (absent small homeotic-2-like protein) (mouse, UniProt Q91X20 1-623)
Assay: cell-based or functional assay

Chain of V5-tagged ASH2L (absent small homeotic-2-like protein) (Q91X20 whole entry): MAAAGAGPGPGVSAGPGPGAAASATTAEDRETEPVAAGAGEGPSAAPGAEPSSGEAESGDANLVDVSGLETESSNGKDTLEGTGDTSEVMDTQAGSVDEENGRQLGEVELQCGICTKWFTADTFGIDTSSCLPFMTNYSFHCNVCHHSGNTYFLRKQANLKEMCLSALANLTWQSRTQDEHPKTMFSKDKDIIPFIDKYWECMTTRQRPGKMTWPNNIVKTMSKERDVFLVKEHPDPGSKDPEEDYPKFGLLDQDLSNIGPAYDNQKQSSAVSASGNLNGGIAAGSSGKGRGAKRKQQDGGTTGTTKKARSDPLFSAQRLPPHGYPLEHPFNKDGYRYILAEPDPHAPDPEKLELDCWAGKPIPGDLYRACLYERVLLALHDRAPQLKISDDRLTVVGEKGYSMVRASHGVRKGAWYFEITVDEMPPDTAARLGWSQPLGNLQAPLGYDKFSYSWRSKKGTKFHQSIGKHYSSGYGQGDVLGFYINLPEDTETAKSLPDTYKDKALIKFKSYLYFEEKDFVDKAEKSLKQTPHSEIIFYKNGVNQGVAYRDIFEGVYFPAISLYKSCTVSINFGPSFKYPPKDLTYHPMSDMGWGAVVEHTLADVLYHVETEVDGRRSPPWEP

- Isl1 promoter (pLG3-Isl1-WT) luciferase reporter activity in C2C12 cells, ASH2L overexpressed with Smyd1: 25 fold above basal level
B1: Myc-tagged Smyd1 (SET and MYND domain-containing protein 1) (natural protein, mouse, UniProt P97443 1-490, looked up)
chain: MTIGSMENVEVFTSEGKGRGLKATKEFWAADVIFAERAYSAVVFDSLINFVCHTCFKRQEKLHRCGQCKFAHYCDRTCQKDAWLNHKNECAAIKKYGKVPNENIRLAARIMWRVEREGTGLTEGCLVSVDDLQNHVEHFGEEEQKELRVDVDTFLQYWPPQSQQFSMQYISHIFGVINCNGFTLSDQRGLQAVGVGIFPNLGLVNHDCWPNCTVIFNNGNHEAVKSMFHTQMRIELRALGKISEGEELTVSYIDFLHLSEERRRQLKKQYYFDCSCEHCQKGLKDDLFLAAKEDPKPSQEVVKEMIQFSKDTLEKIDKARSEGLYHEVVKLCRECLEKQEPVFADTNLYVLRLLSIASEVLSYLQAYEEASHYARRMVDGYMKLYHHNNAQLGMAVMRAGLTNWHAGHIEVGHGMICKAYAILLVTHGPSHPITKDLEAMRMQTEMELRMFRQNEFMYHKMREAALNNQPMQVMAEPSNEPAPALFHKKQ
